Data published in patent publication US20030166868A1 (Genentech, published 2003).

Assays:
[1] = biological target: T1, FcγRIIIa α subunit ECD-6His-GST fusion protein (UniProt P08637 17-208); assay: ELISA, E27:chimeric IgE:VEGF (1:1:2) immune complex on plate-coated receptor ECD-6His-GST
T1 construct: Expressed in 293 cells; also called FcγIII; FcγIIIa; not shown: glutathione S transferase (GST)

[2] = biological target: T2, FcγRIIb α subunit ECD-6His-GST fusion protein (UniProt P31994 43-217); assay: as above
T2 construct: Expressed in 293 cells; also called FcγRIlb; not shown: glutathione S transferase (GST)
T2 sequence: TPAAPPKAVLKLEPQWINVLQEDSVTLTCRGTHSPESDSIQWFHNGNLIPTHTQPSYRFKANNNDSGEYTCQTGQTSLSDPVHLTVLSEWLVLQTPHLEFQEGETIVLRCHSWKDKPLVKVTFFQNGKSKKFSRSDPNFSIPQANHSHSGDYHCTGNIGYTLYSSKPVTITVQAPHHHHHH

[3] = biological target: T3, FcγRIIa α subunit ECD-6His-GST fusion protein (UniProt P12318 34-217); assay: as above
T3 construct: Expressed in 293 cells; not shown: glutathione S transferase (GST)
T3 sequence: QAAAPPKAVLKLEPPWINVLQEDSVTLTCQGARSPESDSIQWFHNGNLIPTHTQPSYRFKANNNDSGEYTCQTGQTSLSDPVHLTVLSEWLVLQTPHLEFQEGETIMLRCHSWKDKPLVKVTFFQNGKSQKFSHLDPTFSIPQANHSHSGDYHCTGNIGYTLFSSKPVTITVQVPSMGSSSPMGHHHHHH

[4] = biological target: T4, FcγRI α subunit-GST fusion (UniProt P12314 16-292); assay: ELISA, monomeric IgG at 10 ug/ml on plate-coated FcγRI α subunit-GST fusion
T4 construct: ECD-6His-GST fusion expressed in 293 cells; not shown: glutathione S transferase (GST)
T4 sequence (P12314 other isoform, or with tags, fused parts or gaps, form in doubt): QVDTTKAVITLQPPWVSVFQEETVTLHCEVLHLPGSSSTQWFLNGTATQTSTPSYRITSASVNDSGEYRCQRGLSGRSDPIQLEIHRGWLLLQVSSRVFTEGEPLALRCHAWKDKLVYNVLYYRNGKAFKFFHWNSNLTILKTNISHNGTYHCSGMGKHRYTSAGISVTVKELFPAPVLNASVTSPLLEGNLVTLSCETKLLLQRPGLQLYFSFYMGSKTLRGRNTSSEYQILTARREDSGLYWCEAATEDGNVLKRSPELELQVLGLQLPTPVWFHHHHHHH

T1 sequence (P08637 other isoform, or with tags, fused parts or gaps, form in doubt): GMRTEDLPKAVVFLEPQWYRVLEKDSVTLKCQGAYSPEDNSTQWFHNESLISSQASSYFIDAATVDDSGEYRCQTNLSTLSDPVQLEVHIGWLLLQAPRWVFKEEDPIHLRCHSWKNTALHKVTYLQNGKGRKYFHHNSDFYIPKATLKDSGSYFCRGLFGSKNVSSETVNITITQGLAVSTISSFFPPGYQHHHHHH

B1: E27 anti-IgE antibody, wild type (humanized IgG1) (antibody)
heavy: not shown
light: DIQLTQSPSSLSASVGDRVTITCRASKPVDGEGDSYMNWYQQKPGKAPKLLIYAASYLESGVPSRFSGSGSGTDFTLTISSLQPEDFATYYCQQSHEDPYTFGQGTKVEIKRTVAAPSVFIFPPSDEQLKSGTASVVCLLNNFYPREAKVQWKVDNALQSGNSQESVTEQDSKDSTYSLSSTLTLSKADYEKHKVYACEVTHQGLSSPVTKSFNRGEC
notes: In the FcγRIIa, FcγRIIb and FcγRIIIa ELISAs it stood as an immune complex E27:chimeric IgE:VEGF (1:1:2); in the FcγRI ELISA as monomeric IgG; also called recombinant anti-IgE E27; wt
In the case of B1, the “binding as a percentage of the wild type” value [1] is reported as 100 % of wild type, the “binding as a percentage of the wild type” value [2] is reported as 100 % of wild type and the “binding as a percentage of the wild type” value [3] is reported as 100 % of wild type. For the same binder, the “binding as a percentage of the wild type” value [4] was 100 % of wild type.

B2: E27 anti-IgE antibody mutant P331A (antibody)
heavy: not shown
light: B1 light
notes: also called P331A (E27 background)
For B2, the “binding as a percentage of the wild type” value [1] was 73 % of wild type, the “binding as a percentage of the wild type” value [2] was 58 % of wild type and the “binding as a percentage of the wild type” value [3] was 86 % of wild type. For the same binder, the “binding as a percentage of the wild type” value [4] was 74 % of wild type.

B3: E27 anti-IgE antibody mutant K322A (antibody)
heavy: not shown
light: B1 light
notes: also called K322A (E27 background)
In the case of B3, the “binding as a percentage of the wild type” value [1] is reported as 90 % of wild type, the “binding as a percentage of the wild type” value [2] is reported as 101 % of wild type and the “binding as a percentage of the wild type” value [3] is reported as 109 % of wild type. For the same binder, the “binding as a percentage of the wild type” value [4] was 90 % of wild type.

B4: E27 anti-IgE antibody mutant P329A (antibody)
heavy: not shown
light: B1 light
notes: also called P329A (E27 background)
In the case of B4, the “binding as a percentage of the wild type” value [1] is reported as 85 % of wild type, the “binding as a percentage of the wild type” value [2] is reported as 96 % of wild type and the “binding as a percentage of the wild type” value [3] is reported as 111 % of wild type. The “binding as a percentage of the wild type” value [4] was 104 % of wild type.

B5: E27 anti-IgE antibody mutant K320A (antibody)
heavy: not shown
light: B1 light
notes: also called K320A (E27 background)
For B5, the “binding as a percentage of the wild type” value [1] was 72 % of wild type, the “binding as a percentage of the wild type” value [2] was 83 % of wild type and the “binding as a percentage of the wild type” value [3] was 94 % of wild type. The “binding as a percentage of the wild type” value [4] was 102 % of wild type.

B6: E27 anti-IgE antibody mutant E318A (antibody)
heavy: not shown
light: B1 light
notes: also called E318A (E27 background)
In the case of B6, the “binding as a percentage of the wild type” value [1] is reported as 104 % of wild type, the “binding as a percentage of the wild type” value [2] is reported as 106 % of wild type and the “binding as a percentage of the wild type” value [3] is reported as 113 % of wild type. For the same binder, the “binding as a percentage of the wild type” value [4] was 93 % of wild type.
